From US20230416343A1 come the findings set out here.

Assay [1] has as its target SARS-CoV-2 Delta variant S protein expressed on HEK293 cells (SARS-CoV-2) (UniProt P0DTC2).
In assay [2] the target is SARS-CoV-2 Delta Plus variant S protein expressed on HEK293 cells (SARS-CoV-2) (UniProt P0DTC2).
The target of assay [3] is SARS-CoV-2 Delta variant S protein expressed on HEK293 cells (SARS-CoV-2) (UniProt P0DTC2). This is another data set of the same source.
Assay [4] concerns the target SARS-CoV-2 variant spike protein del 69-79 plus N439K on HEK293 cells (SARS-CoV-2) (UniProt P0DTC2).
Assay [5] concerns the target SARS-CoV-2 variant spike protein del 69-79 plus N501Y on HEK293 cells (SARS-CoV-2) (UniProt P0DTC2).
Assay [6] deals with SARS-CoV-2 variant spike protein del 69-79 plus N439K on HEK293 cells (SARS-CoV-2) (UniProt P0DTC2). The source holds these as a separate data set.
Assay [7] addresses SARS-CoV-2 variant spike protein del 69-79 plus N501Y and D614G on HEK293 cells (SARS-CoV-2) (UniProt P0DTC2).

Read-outs that look alike come from different tables or passages of the source.

Regarding S1D7270LALA antibody (STI-2020), the 50% effective concentration (EC50) in assay [1] was determined as 0.106 µg/mL; in assay [2], 0.187 µg/mL; in assay [3] it was 0.105 µg/mL; in assay [6], 70 µg/mL; in assay [7], 172 µg/mL. In addition, the figures for the EC50 (read off the curve) in assay [4] and in assay [5] were 0.07 µg/mL and 0.09 µg/mL, respectively.

In general, EC50 refers to the concentration that produces a half-maximal response. What is called EC50 (read off the curve) is the concentration at which the effect is half-maximal.
